B3: KAP1 RBCC (residues 50-413), wild type (domain or fragment, human, UniProt Q13263 50-413, looked up)
chain: SPAGGGAEALELLEHCGVCRERLRPEREPRLLPCLHSACSACLGPAAPAAANSSGDGGAAGDGTVVDCPVCKQQCFSKDIVENYFMRDSGSKAATDAQDANQCCTSCEDNAPATSYCVECSEPLCETCVEAHQRVKYTKDHTVRSTGPAKSRDGERTVYCNVHKHEPLVLFCESCDTLTCRDCQLNAHKDHQYQFLEDAVRNQRKLLASLVKRLGDKHATLQKSTKEVRSSIRQVSDVQKRVQVDVKMAILQIMKELNKRGRVLVNDAQKVTEGQQERLERQHWTMTKIQKHQEHILRFASWALESDNNTALLLSKKLIYFQLHRALKMIVDPVEPHGEMKFQWDLNAWTKSAEAFGKIVAERP
notes: KAP1 (TRIM28), human, UniProt Q13263, residues 50-413 (RING, B-box 1, B-box 2, coiled coil); rows of m3 with m3 give the step in the assay's format; also called KAP1 RBCC motif; KAP1 TRIM; not shown: His6, N-terminal, cleaved
B5: Twin-StrepII-MBP-ZNF93 KRAB (KRAB domain residues 1-71 of ZNF93) (domain or fragment)
chain: not shown
notes: ZNF93, UniProt P35789, KRAB domain residues 1-71; The MBP tag was also required for protein solubility; also called MBP-KRAB; ZNF93 MBP-KRAB; source: E. coli BL21 (DE3), purified (StrepTrap, Superdex 200 SEC); also coexpressed with KAP1 in E. coli and co-purified; not shown: Twin-StrepII, N-terminal, kept; MBP, N-terminal, kept

How the values were obtained:
[1] = biological target: the molecule itself; assay: SEC-MALS; RING-B-box 1 (WT at 33 to 610 µM; B-box 1 mutant); monomer to dimer; Superdex 75 (10/300), 20 mM Hepes pH 8, 0.2 M NaCl, 0.5 mM TCEP, 293 K
[2] = biological target: the molecule itself; assay: SEC-MALS; KAP1 RBCC at low protein concentration (8.7 µM, 0.35 g/L); monomers to dimer; Superdex 200 (10/300), 20 mM Hepes pH 8, 0.5 M NaCl, 0.5 mM TCEP, 293 K
[3] = biological target: B3; assay: SPR; Biacore T200, CM5 chip, MBP-KRAB immobilized (~600 RU), KAP1 RBCC flowed over (1:2 dilution series from 34 µM WT, 35 µM mutant), 20 mM Hepes pH 8.0, 0.5 M NaCl, 0.5 mM TCEP, 20 °C; biphasic kinetic model; settings: both partners purified
[4] = biological target: B5; assay: SEC-MALS; full-length KAP1 and ZNF93 MBP-KRAB coexpressed in E. coli and co-purified (StrepTrap, SEC); Superose 6 (10/300), 20 mM Hepes pH 8, 0.5 M NaCl, 0.5 mM TCEP, 293 K; total protein 1.2 g/L; settings: both partners purified
[5] = biological target: the molecule itself; assay: as above

B1: KAP1 RING-B-box 1 (RB1; residues 50-200) (domain or fragment, human, UniProt Q13263 50-200, looked up)
chain: SPAGGGAEALELLEHCGVCRERLRPEREPRLLPCLHSACSACLGPAAPAAANSSGDGGAAGDGTVVDCPVCKQQCFSKDIVENYFMRDSGSKAATDAQDANQCCTSCEDNAPATSYCVECSEPLCETCVEAHQRVKYTKDHTVRSTGPAKS
notes: KAP1 (TRIM28), human, UniProt Q13263, residues 50-200 (RING and B-box 1); also called RING-B-box 1 fragment; RING-Box-1 fragment; not shown: His6, N-terminal, cleaved
Question: For B1, which “stoichiometry N” value [1] is on record?
Answer: The value was 2.

B2: KAP1 RBCC V114A/Q123A/F125A/K127A (RING domain mutant) (domain or fragment, human, UniProt Q13263 50-413, looked up)
chain: SPAGGGAEALELLEHCGVCRERLRPEREPRLLPCLHSACSACLGPAAPAAANSSGDGGAAGDGTAVDCPVCKQACASADIVENYFMRDSGSKAATDAQDANQCCTSCEDNAPATSYCVECSEPLCETCVEAHQRVKYTKDHTVRSTGPAKSRDGERTVYCNVHKHEPLVLFCESCDTLTCRDCQLNAHKDHQYQFLEDAVRNQRKLLASLVKRLGDKHATLQKSTKEVRSSIRQVSDVQKRVQVDVKMAILQIMKELNKRGRVLVNDAQKVTEGQQERLERQHWTMTKIQKHQEHILRFASWALESDNNTALLLSKKLIYFQLHRALKMIVDPVEPHGEMKFQWDLNAWTKSAEAFGKIVAERP
notes: KAP1 (TRIM28), human, UniProt Q13263, RBCC residues 50-413 with four mutations in the RING domain; also called RBCC with RING domain mutations; source: E. coli BL21 (DE3), purified; not shown: His6, N-terminal, cleaved
Question: Does B2 bind [2]?
Answer: Result: binds

Question: For B3, which “stoichiometry N” value [2] is on record?
Answer: The value was 2.

B4: KAP1 RBCC N235A/A236D/K238A/D239A/F244A/L245A (B-box 2 mutant) (domain or fragment, human, UniProt Q13263 50-413, looked up)
chain: SPAGGGAEALELLEHCGVCRERLRPEREPRLLPCLHSACSACLGPAAPAAANSSGDGGAAGDGTVVDCPVCKQQCFSKDIVENYFMRDSGSKAATDAQDANQCCTSCEDNAPATSYCVECSEPLCETCVEAHQRVKYTKDHTVRSTGPAKSRDGERTVYCNVHKHEPLVLFCESCDTLTCRDCQLADHAAHQYQAAEDAVRNQRKLLASLVKRLGDKHATLQKSTKEVRSSIRQVSDVQKRVQVDVKMAILQIMKELNKRGRVLVNDAQKVTEGQQERLERQHWTMTKIQKHQEHILRFASWALESDNNTALLLSKKLIYFQLHRALKMIVDPVEPHGEMKFQWDLNAWTKSAEAFGKIVAERP
notes: KAP1 (TRIM28), human, UniProt Q13263, RBCC residues 50-413 with six mutations in and next to B-box 2; also called RBCC with the B-box 2 mutations; source: E. coli BL21 (DE3), purified; not shown: His6, N-terminal, cleaved
Question: Does B4 bind [2]?
Answer: Result: binds

Question: For B5, which Kd [3] is on record?
Answer: Its Kd is 8 ± 2 nM.

Question: What about the koff [3] of the same binder?
Answer: Its koff is 0.00027 s⁻¹.

Question: And the kon [3]?
Answer: Its kon is 36000 M⁻¹ s⁻¹.

B6: full-length KAP1 (residues 1-835) (natural protein, human, UniProt Q13263 1-835, looked up)
chain: MAASAAAASAAAASAASGSPGPGEGSAGGEKRSTAPSAAASASASAAASSPAGGGAEALELLEHCGVCRERLRPEREPRLLPCLHSACSACLGPAAPAAANSSGDGGAAGDGTVVDCPVCKQQCFSKDIVENYFMRDSGSKAATDAQDANQCCTSCEDNAPATSYCVECSEPLCETCVEAHQRVKYTKDHTVRSTGPAKSRDGERTVYCNVHKHEPLVLFCESCDTLTCRDCQLNAHKDHQYQFLEDAVRNQRKLLASLVKRLGDKHATLQKSTKEVRSSIRQVSDVQKRVQVDVKMAILQIMKELNKRGRVLVNDAQKVTEGQQERLERQHWTMTKIQKHQEHILRFASWALESDNNTALLLSKKLIYFQLHRALKMIVDPVEPHGEMKFQWDLNAWTKSAEAFGKIVAERPGTNSTGPAPMAPPRAPGPLSKQGSGSSQPMEVQEGYGFGSGDDPYSSAEPHVSGVKRSRSGEGEVSGLMRKVPRVSLERLDLDLTADSQPPVFKVFPGSTTEDYNLIVIERGAAAAATGQPGTAPAGTPGAPPLAGMAIVKEEETEAAIGAPPTATEGPETKPVLMALAEGPGAEGPRLASPSGSTSSGLEVVAPEGTSAPGGGPGTLDDSATICRVCQKPGDLVMCNQCEFCFHLDCHLPALQDVPGEEWSCSLCHVLPDLKEEDGSLSLDGADSTGVVAKLSPANQRKCERVLLALFCHEPCRPLHQLATDSTFSLDQPGGTLDLTLIRARLQEKLSPPYSSPQEFAQDVGRMFKQFNKLTEDKADVQSIIGLQRFFETRMNEAFGDTKFSAVLVEPPPMSLPGAGLSSQELSGGPGDGP
notes: KAP1 (TRIM28), human, UniProt Q13263, full length, residues 1-835; Purified as T4L-RBCC, that is without removal of the His6 tag; a TEV site (ENLYFQG) lies between tag and protein; also called TRIM28; TIF1β; source: also coexpressed with MBP-KRAB in E. coli and co-purified (StrepTrap, Superose 6 SEC); not shown: His6, N-terminal, kept
Question: What does the source list for B6?
Answer: stoichiometry N [4]: 2 KAP1 per KRAB; binding result [5]: binds

Source: PMC6660772, “Structure of KAP1 tripartite motif identifies molecular interfaces required for retroelement silencing” (Proceedings of the National Academy of Sciences of the …, 2019)
